Test results reported in the DeepSol protein solubility set.

test: soluble on expression in E. coli; label from the status in PepcDB or PDB records

Row | Sequence | soluble on expression in E. coli
1 | MRKISVFDTTLRDGEQSAGVNLNFEEKMEIAKQLERLGVDIIEAGFPASSQGDFQSVKAIAETVKGSSVTGLARSVQKDIDAAWEALKSAEEPRIHLFIATSPIHMEHKLRMTPEQVIEKAVESVKYAASRFKHVQWSAEDASRSDFPFLAQIIEAVIQAGATVINLPDTVGYTTPQEIKRMFQYMKQNVPSIDKVSLSTHNHDDLGMAVANSLAAIQGGADQVECTINGIGERAGNASLEEIAVALNIRKDHYETETGLILKEIKRTSSLVSKLTGMVVPNNKAVVGANAFAHESGIHQDGVLKNKQTYEIITPEMVGVSSNSMVLGKHSGRHAFKTKVQELGFTGTDEQLNNIFKAFKDLADKKKEITEDDLFALMTEQTVGGETNHYELQTLQVNYGSNLTNTATITMKLPSGEVAEEAATGSGSVEAIYNTLERLLDAPVKLLDYRIQSITGGRDALADVYVQMDYQGVVSSGRGTAHDVLEASAKAYLNAVNRTINRKKYAEVYGSKVEV | soluble
2 | MRKIVLPGDLLSTNPRAAGYGTYVEGGKVYAKIIGLFDQTETHVRVIPLKGRYTPSVGDVVIGIIREVAANGWAVDIYSPYQAFLPVSENPEMKPNKKPNEVLDIGDAIIAKVLNIDPKMKVTLTMKDRICRPIRFGRIVAINPARVPRVIGKKGSMIKLLKSELDVQIVVGQNGLIWVNGDRRKVSIAEEAIYLIEQEAHTEGLTDRVAEFIKRRKADVGIQHHHHHH | soluble
3 | MRKLVVGITIASLMGCSMGHRDPVEVKQALNESINQANSRALEEIPSSVEADLMPNLDSNVSSDNGTSKRFRIQANAVEARSFFASLVKGTEYSVAIHPAVQGNITVNLSDVTLDEVLSVVQNMYGYDVMKSGKVIQVYPAGMRTVTIPVDYLQFKRSGRSLTSIVTGSVTSAGTSNSGGSSDSSDSSDSNNSNNGNDSSTTSTGGTRIETITESDFWPMLQQAVANLIGSGKGQSVVVTPQAGVITVRAFPDDIREVREFLGVSQERMQRQVILEAKILEVTLSDGYQQGINWSNLSASIGNSGSIIVNRPASALPPLDAIGTLLGGQTNVTISDGNFEAVLNFMSTQGDLNVLSSPRITAANNQKSVIKVGTDQYFVTELSSNAGNGENSNAVPEVELTPFFSGISLDVTPQIDNKGNVFLHVHPAVIEVTEEVKQLNLGGDFQNIQLPLAKSSIRESDSVIRAKDGDVVVIGGLMKQQNVEQVSKVPFLGDVPALGHLFRNTSNVTQKTELVILLKPTVVGVNSWQKELERSRDLLQEWFPDAQLEHHHHHH | not soluble
4 | MRKPKITVIGGGTGSPVILKSLREKDVEIAAIVTVADDGGSSGELRKNMQQLTPPGDLRNVLVAMSDMPKFYEKVFQYRFSEDAGAFAGHPLGNLIIAGLSEMQGSTYNAMQLLSKFFHTTGKIYPSSDHPLTLHAVFQDGTEVAGESHIVDHRGIIDNVYVTNALNDDTPLASRRVVQTILESDMIVLGPGSLFTSILPNIVIKEIGRALLETKAEIAYVCNIMTQRGETEHFTDSDHVEVLHRHLGRPFIDTVLVNIEKVPQEYMNSNRFDEYLVQVEHDFVGLCKQVSRVISSNFLRLENGGAFHDGDLIVDELMRIIQVKKLEHHHHHH | soluble
5 | MRKRARIIYNPTSGKELFKRELPDALIKLEKAGYETSAYATEKIGDATLEAERAMHENYDVLIAAGGDGTLNEVVNGIAEKPNRPKLGVIPMGTVNDFGRALHIPNDIMGALDVIIEGHSTKVDIGKMNNRYFINLAAGGQLTQVSYETPSKLKSIVGPFAYYIKGFEMLPQMKAVDLRIEYDGNVFQGEALLFFLGLTNSMAGFEKLVPDAKLDDGYFTLIIVEKSNLAELGHIMTLASRGEHTKHPKVIYEKAKAINISSFTDLQLNVDGEYGGKLPANFLNLERHIDVFAPNDIVNEELINNDHVDDNLIEEMAGDPLEHHHHHH | not soluble
6 | MRLDGKTALITGSARGIGRAFAEAYVREGARVAIADINLEAARATAAEIGPAACAIALDVTDQASIDRCVAELLDRWGSIDILVNNAALFDLAPIVEITRESYDRLFAINVSGTLFMMQAVARAMIAGGRGGKIINMASQAGRRGEALVGVYCATKAAVISLTQSAGLNLIRHGINVNAIAPGVVDGEHWDGVDAKFADYENLPRGEKKRQVGAAVPFGRMGRAEDLTGMAIFLATPEADYIVAQTYNVDGGNWMS | soluble
7 | MRLIVVGIAEDITEKKQLETELQRLATTDVLTQSSNRRHFFECANREFEQARLQGSSLAFLLLDIDDFKVINDTYGHPEGDIVLQRIAESGRAALRRGDLFGRIGGEEFAAVFPGCTADMARQVAERLQREIQRQNFSHQGQTFTITVSQGLTGLLAEDESLDNLFARADSAMYEAKRQGKNRIITGLEHHHHHH | not soluble
8 | MRLLTIGSGLRGAKVAEILHKKGVKVNRVPLFKCFAVLNNEEHLRSISIGDDRKYYVHGLKGDVSGFVNQITSLYEIFEGSLVLTSLEDDFGYITSLELCQRLRKVTEDAVISLAIVPQLDTSSIGEIKKRIRSLRDVSDILILFEGEVGVERKILEVMNLVALAGEIDLKKRVAGEVVVDTSDVFNALKSDGFAIAGLAERKIPFNFKNLIFRRNSELKAVRTRRMIELTEEALQNVSINGDVENAKSALLLFAGKPDELTMEGLFSSIAMIENINRDIVVRYGDYPIPGSRKVSAVLIFSGIRKFRFA | soluble
9 | MRLVQDYDQQPIMYDEVELLIQAVDQQPHPLLRLRDKAIIQLGLQGGFRRSELANLKVHYLSFMRDKLKVRLPFSKSNQQGLREWKSLPDSEPFAAYHAVKSWLNESQITDGHLFRSISRDGKTLRPYHVNDNSKPKSTFSRNSGFLNGDDIYRIIKQYCLKAGLPAQYYGAHSLRSGCVTQLHENNKDILYIMARTGHTDPRSLRHYLKPKEDLEHHHHHH | soluble
10 | MRLYINEIKIKDDILYCYTEDSIKGLSEVGQMLVDSDNYAFAYTLDDGKAYAYLIFVQETWTMLHENTTKKIIINDELELTEFHQELTYILDNIKGNNNYGKEFVATVEETFDIE | not soluble
11 | MRNEEKHALRRELRRARAQMGHQGRLAAGQTINRLLKRYIKRGRKIGVYWPMGKELRLDGFVRAAQKRGAKLYLPYIEPRSRRMWFTPYPESGMERERIRGRAKLNVPQFAGRKIRVHGLSVLLVPLVGIDREGYRLGQAGGYYDATLAAMKYRLQAKTVGVGFACQFVDRLPREPHDLLLDGFVSEAGILCFLEHHHHHH | not soluble
12 | MRNEEKRALRRELRGRRSQMGRDVRAAATVKINHLLKRYIKKGRKIGVYWPMGKELRLDGFVRAAQKRGAELYLPYIEPRSRRMWFTPYPADGVKQERKRGRAKLHVPQFAGRKKRVHDLNLLLVPVVGMDRLGYRLGQAGGYYDATLSAMKYRLQAKTVGVGFACQLVDRLPVEAHDRSLDGFVSEAGILCF | not soluble
13 | MRNIGIIINKEKDKENKILNLVILKVKEYLNPDEIKVIDQFYKGDYKDLMSLDLLIVLGGDGTLLGVARKFSTVIDTPILGINIGNLGFLVTAEISELDEALYRIKVGDYKVEERMLLSCTIEGVTCSEERALNDIVVARGTLSRMAQYEVFINDELYATFKGDGVIISTPVGSTAYSFSAGGPLIMPDLQIVSIVPICPHTPNSRPMIIDGNNKVRVKPLINESDVFVTIDGQKALKLEKHNEVLIKKAKEFFRIISFDNKSYFKVLRKKLFKIELEHHHHHH | not soluble
14 | MRNLAIVDLGSNSARMAVSRLHANGTAQEIKRVKEDTRLSEGMGTAHVLQPAAIERTIKALLNFRRLYEKMPNTDVIGITTAAVRMAQNQTEFLNQVKQEVGLDLRVLSGDDEAYYDYLGVANSLVIHDCLILDTGGASCELILVKNGRKQQLISIPFGAVTLSEQFGLDDLVPSASLFRAQMFLRNRLADIWWLSEAVHFPIILLGGANRTLARINRRRQQKLKVEDIHGYRLKTETVFHTFLDLLSRSKKGRQEISGMEYDRADIIVGGMLPLVTLLQMLDSDRVIFSESGVREGIISEHLNQLEHHHHHH | not soluble
15 | MRNTVNILGIPIDNVSMDEALNVVKGFLSEDRVHTVYTPNSEIMMAAQRDPELKKILCEADLLVPDGAGVVLASKINGCPLKERVAGFDLTNMLFSDEAAKAVNFFFLGGKPGVAEEAYKNLLDRKININVVGIRNGYFTKDEEEEIIRQINDSNTDVLLVALGAPKQEKWIHANKEKLKVKVCIGVGGTFDVLAGRAKRAPVFFQKHGLEWLYRLYKEPWRFVRMLDLPRFILRVIANKIRPEKPERA | soluble
16 | MRPEDEALIVACIPSLRRYARGLTGERDRADDLVQDTLERAWSRFSRWQRRGELRAWMFGIMHNQFIDGLRAQKRQADYGAETEIPELPVRATQADRLEVRDLDRHLQRLPADLRAVLLLVAVEEFTYREAAQVLEVPIGTVMSRLSRARERLAALLQVQAEAPAASTVQRIRAT | not soluble
17 | MRPLKISRDELLQRCAGTFRRYGYHGTTMEMLSSACGLTKASFYHHYPNKEALLRDVLEWTHQRLAETLFSIAYDPLLTPRERLEKLGRKAARLFQDDSIGCLMGVVAVDASYGRSELMAPIRSFLDDWAQAFAQLYRPAFDEAQALERGRQLVADFEGAILLARIYGEPGYIDGVTRRALEQLAG | not soluble
18 | MRPLTLHTPKPLVRAGGIPLIEYHLNALRAAGFHQLVINHAWLGQQIEDYLGDGQRFDLSIRYSAEGQPLETGGGIQRALPLLGAEPFVVVNGDVWTDYDFGALRMPLAGLAHLVLIDNPAHHPTGDFSLVDGQVRDDDSAGLRLTYSGIAILHPQLFADCEPGAFKLAPLLREAMHQGLVTGEHFKGRWVDVGTHERLAEVEQLLAETRLEHHHHHH | not soluble
19 | MRRAGYLHLYGLNLVFDRVGKGPPVLLVAEEASRWPEALPEGYAFYLLDLPGYGRTEGPRMAPEELAHFVAGFAVMMNLGAPWVLLRGLGLALGPHLEALGLRALPAEGVEVAEVLSSKLSYGNIDLGGNL | soluble
20 | MRRCIELAKNGLCNVAPNPMVGAVIVCDGLIIGEGYHIRCGEAHAEVNAIRSVKDKSLLSRSTIYVSLEPCSHYGKTPPCADLIIEKQIPRIVIGCQDPFSQVAGRGIQKLRDAGREVTVGVLEKECRYLIRRFITFNTLHRPFITLKWAESADHFIDVERTDGNPVVLSSPLTSMLVHKKRAETDAIMVGRRTALLDNPSLTVRNWYGRNPVRIVLDRALSLPHSLRLFDGEVPTIVFTAEKHPDKKNVTYRTIEFTQDILPQIMKVLYQQKIQSLLVEGGSQLLQSFIDAELWDEVYIEKCPCKLNSGVKAPEISDNFSYSTEKHFDRQIWHYVFEK | not soluble
21 | MRRHAIILAAGKGTRMKSKKYKVLHEVAGKPMVEHVLESVKGSGVDQVVTIVGHGAESVKGHLGERSLYSFQEEQLGTAHAVQMAKSHLEDKEGTTIVVCGDTPLITKETLETLIAHHEDANAQATVLSASIQQPYGYGRIVRNASGRLERIVEEKDATQAEKDINEISSGIFAFNNKTLFEKLTQVKNDNAQGEYYLPDVLSLILNDGGIVEVYRTNDVEEIMGVNDRVMLSQAEKAMQRRTNHYHMLNGVTIIDPDSTYIGPDVTIGSDTVIEPGVRINGRTEIGEDVVIGQYSEINNSTIENGACIQQSVVNDASVGANTKVGPFAQLRPGAQLGADVKVGNFVEIKKADLKDGAKVSHLSYIGDAVIGERTNIGCGTITVNYDGENKFKTIVGKDSFVGCNVNLVAPVTIGDDVLVAAGSTITDDVPNDSLAVARARQTTKEGYRK | not soluble
22 | MRRLLLTLILAATLLGCSQAPQEKLKVGILPIEDSLPIVVADEQGFFKKHGLDVEVIQFSSAVERDAALTAGEVDAVITDPLAVILLRDKGYDVRIASLCLGKTPKEGVFAILAAPNSDIDSVEDLDGKEIAVSLNTIIEYALDVMLSEYGLNYTKISIPKIPIRMQALLNGNVETAVLPEPLASYAVSKGAKLILSDAMLNESITQTVIVFRGDVDDEKVQKFLEAYREAVREINANKEKYREKFIEIARVPENIAGSYPIPDYPEPQQLPKEYYDRYLEWAMQRGLIEKPVPYEEAIR | not soluble
